# Measurements taken from article PMC2756588.
# T1: Abp1, P15891
# T1 sequence (P15891 535-592, looked up): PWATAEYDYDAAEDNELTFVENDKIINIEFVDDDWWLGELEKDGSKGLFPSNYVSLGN
# T2: Bbc1, P47068
# T2 sequence (P47068 1-78, looked up): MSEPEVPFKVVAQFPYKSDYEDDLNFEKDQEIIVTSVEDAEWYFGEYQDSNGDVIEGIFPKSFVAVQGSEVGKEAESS
# T3: Boi1, P38041
# T3 sequence (P38041 1-86, looked up): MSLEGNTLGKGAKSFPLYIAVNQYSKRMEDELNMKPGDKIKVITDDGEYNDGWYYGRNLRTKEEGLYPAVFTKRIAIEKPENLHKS
# T4: Boi2, P39969
# T4 sequence (P39969 32-116, looked up): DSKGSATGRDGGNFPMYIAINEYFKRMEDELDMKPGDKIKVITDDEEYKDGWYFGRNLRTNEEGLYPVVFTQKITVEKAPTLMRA
# T5: Bud14, P27637
# T5 sequence (P27637 247-328, looked up): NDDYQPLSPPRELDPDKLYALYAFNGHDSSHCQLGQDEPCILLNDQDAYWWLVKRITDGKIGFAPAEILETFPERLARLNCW
# T6: Bzz1-1, P38822
# T6 sequence (P38822 478-572, looked up): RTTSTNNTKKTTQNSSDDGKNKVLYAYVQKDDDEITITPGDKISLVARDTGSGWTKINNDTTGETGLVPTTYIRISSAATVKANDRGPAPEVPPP
# T7: Bzz1-2, P38822
# T7 sequence (P38822 568-633, looked up): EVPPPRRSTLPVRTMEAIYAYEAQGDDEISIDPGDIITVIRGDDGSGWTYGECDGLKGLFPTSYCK
# T8: Cdc25, P04821
# T8 sequence (P04821 50-136, looked up): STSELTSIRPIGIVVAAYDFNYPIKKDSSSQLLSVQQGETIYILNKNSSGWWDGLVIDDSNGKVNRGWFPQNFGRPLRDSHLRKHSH
# T9: Cyk3, Q07533
# T9 sequence (Q07533 1-83, looked up): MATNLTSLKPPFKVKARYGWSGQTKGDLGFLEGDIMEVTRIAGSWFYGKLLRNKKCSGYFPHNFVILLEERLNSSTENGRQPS
# T10: Fus1, P11710
# T10 sequence (P11710 432-512, looked up): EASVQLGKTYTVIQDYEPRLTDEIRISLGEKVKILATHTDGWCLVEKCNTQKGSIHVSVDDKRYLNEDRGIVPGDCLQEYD
# T11: Hof1, Q05080
# T11 sequence (Q05080 590-669, looked up): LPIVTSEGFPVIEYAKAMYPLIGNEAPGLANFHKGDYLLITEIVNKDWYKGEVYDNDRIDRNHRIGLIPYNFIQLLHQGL
# T12: Hse1, P38753
# T12 sequence (P38753 208-285, looked up): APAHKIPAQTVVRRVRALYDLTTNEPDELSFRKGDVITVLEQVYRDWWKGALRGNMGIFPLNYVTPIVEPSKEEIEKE
# T13: Lsb1, P53281
# T13 sequence (P53281 45-122, looked up): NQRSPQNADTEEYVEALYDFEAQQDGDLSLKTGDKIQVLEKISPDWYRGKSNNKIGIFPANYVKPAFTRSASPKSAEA
# T14: Lsb3, P43603
# T14 sequence (P43603 385-451, looked up): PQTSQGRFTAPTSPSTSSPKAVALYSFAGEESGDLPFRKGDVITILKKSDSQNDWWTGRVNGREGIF
# T15: Lsb4, P32793
# T15 sequence (P32793 402-468, looked up): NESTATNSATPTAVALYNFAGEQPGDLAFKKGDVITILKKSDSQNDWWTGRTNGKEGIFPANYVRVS
# T16: Myo5, Q04439
# T16 sequence (Q04439 1072-1160, looked up): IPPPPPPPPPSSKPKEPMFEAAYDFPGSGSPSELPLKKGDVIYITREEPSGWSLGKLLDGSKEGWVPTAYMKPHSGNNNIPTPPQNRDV
# T17: Nbp2, Q12163
# T17 sequence (Q12163 103-180, looked up): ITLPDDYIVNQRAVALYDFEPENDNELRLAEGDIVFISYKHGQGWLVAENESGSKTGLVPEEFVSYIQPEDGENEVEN
# T18: Pex13, P80667
# T18 sequence (P80667 295-386, looked up): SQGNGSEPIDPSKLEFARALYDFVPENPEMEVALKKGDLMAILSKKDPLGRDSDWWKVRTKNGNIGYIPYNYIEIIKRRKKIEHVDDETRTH
# T19: Pin3, Q06449
# T19 sequence (Q06449 53-122, looked up): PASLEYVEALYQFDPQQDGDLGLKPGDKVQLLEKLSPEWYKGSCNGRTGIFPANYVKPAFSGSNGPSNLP
# T20: Sla1-2, P32790
# T20 sequence (P32790 60-140, looked up): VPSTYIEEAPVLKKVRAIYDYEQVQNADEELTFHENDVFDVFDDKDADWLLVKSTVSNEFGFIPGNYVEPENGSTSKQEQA
# T21: Sla1-3, P32790
# T21 sequence (P32790 344-424, looked up): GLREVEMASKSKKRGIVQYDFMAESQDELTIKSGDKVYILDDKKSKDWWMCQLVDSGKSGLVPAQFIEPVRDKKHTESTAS
# Experiments:
# Test in all cases: SPOT array
# Abp1, P15891 = biological target: T1, Abp1, P15891; details: median of control spots 935
# Bbc1, P47068 = biological target: T2, Bbc1, P47068; details: median of control spots 796
# Bem1-1, P29366 = details: median of control spots 4282
# Bem1-2, P29366 = details: median of control spots 4347
# Boi1, P38041 = biological target: T3, Boi1, P38041; details: median of control spots 1162
# Boi2, P39969 = biological target: T4, Boi2, P39969; details: median of control spots 1161
# Bud14, P27637 = biological target: T5, Bud14, P27637; details: median of control spots 956
# Bzz1-1, P38822 = biological target: T6, Bzz1-1, P38822; details: median of control spots 4446
# Bzz1-2, P38822 = biological target: T7, Bzz1-2, P38822; details: median of control spots 4538
# Cdc25, P04821 = biological target: T8, Cdc25, P04821; details: median of control spots 969
# Cyk3, Q07533 = biological target: T9, Cyk3, Q07533; details: median of control spots 1451
# Fus1, P11710 = biological target: T10, Fus1, P11710; details: median of control spots 1200
# GST = details: median of control spots 978
# Hof1, Q05080 = biological target: T11, Hof1, Q05080; details: median of control spots 4086
# Hse1, P38753 = biological target: T12, Hse1, P38753; details: median of control spots 1727
# Lsb1, P53281 = biological target: T13, Lsb1, P53281; details: median of control spots 388
# Lsb3, P43603 = biological target: T14, Lsb3, P43603; details: median of control spots 406
# Lsb4, P32793 = biological target: T15, Lsb4, P32793; details: median of control spots 397
# Myo3, P36006 = details: median of control spots 468
# Myo5, Q04439 = biological target: T16, Myo5, Q04439; details: median of control spots 471
# Nbp2, Q12163 = biological target: T17, Nbp2, Q12163; details: median of control spots 357
# Pex13, P80667 = biological target: T18, Pex13, P80667; details: median of control spots 1341
# Pin3, Q06449 = biological target: T19, Pin3, Q06449; details: median of control spots 2171
# Rvs167, P39743 = details: median of control spots 2707
# Sho1, P40073 = details: median of control spots 1148
# Sla1-2, P32790 = biological target: T20, Sla1-2, P32790; details: median of control spots 712
# Sla1-3, P32790 = biological target: T21, Sla1-3, P32790; details: median of control spots 5475
# Sequence of Rvs167, P39743 (P39743 419-482): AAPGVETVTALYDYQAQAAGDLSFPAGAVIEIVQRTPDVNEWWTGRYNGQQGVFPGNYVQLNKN
# Sequence of Bem1-2, P29366 (P29366 139-227): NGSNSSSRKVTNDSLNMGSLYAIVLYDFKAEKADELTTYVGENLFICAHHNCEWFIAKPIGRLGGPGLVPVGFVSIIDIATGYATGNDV
# Sequence of Bem1-1, P29366 (P29366 55-141): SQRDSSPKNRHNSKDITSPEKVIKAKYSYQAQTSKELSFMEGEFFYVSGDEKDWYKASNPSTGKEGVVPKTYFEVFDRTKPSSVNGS
# Sequence of Sho1, P40073 (P40073 287-367): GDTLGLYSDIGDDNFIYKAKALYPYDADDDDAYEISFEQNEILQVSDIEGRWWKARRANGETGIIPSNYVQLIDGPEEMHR
"SPOT intensity (Abp1, P15891)","SPOT intensity (Bbc1, P47068)","SPOT intensity (Bem1-1, P29366)","SPOT intensity (Bem1-2, P29366)","SPOT intensity (Boi1, P38041)","SPOT intensity (Boi2, P39969)","SPOT intensity (Bud14, P27637)","SPOT intensity (Bzz1-1, P38822)","SPOT intensity (Bzz1-2, P38822)","SPOT intensity (Cdc25, P04821)","SPOT intensity (Cyk3, Q07533)","SPOT intensity (Fus1, P11710)",SPOT intensity (GST),"SPOT intensity (Hof1, Q05080)","SPOT intensity (Hse1, P38753)","SPOT intensity (Lsb1, P53281)","SPOT intensity (Lsb3, P43603)","SPOT intensity (Lsb4, P32793)","SPOT intensity (Myo3, P36006)","SPOT intensity (Myo5, Q04439)",Binder,other results
121,190,0,1,1,1,24,0,6,27,1,6,2,0,1,30,4,8,14,2,TKIRRRPQQPLTDFT,"SPOT intensity (Nbp2, Q12163): 2; SPOT intensity (Pex13, P80667): 3; SPOT intensity (Pin3, Q06449): 11; SPOT intensity (Rvs167, P39743): 1; SPOT intensity (Sho1, P40073): 120; SPOT intensity (Sla1-2, P32790): 1; SPOT intensity (Sla1-3, P32790): 20"
28,24,0,0,1,0,3,1,1,10,0,26,0,4,5,0,2,0,8,0,RSRRSSFAYPQQVAI,"SPOT intensity (Nbp2, Q12163): 0; SPOT intensity (Pex13, P80667): 4; SPOT intensity (Pin3, Q06449): 8; SPOT intensity (Rvs167, P39743): 2; SPOT intensity (Sho1, P40073): 64; SPOT intensity (Sla1-2, P32790): 1; SPOT intensity (Sla1-3, P32790): 29"
22,2,0,4,0,0,1,0,7,3,0,1,0,25,101,1,0,4,0,0,LSKRLPLRFPEHTSS,"SPOT intensity (Nbp2, Q12163): 2; SPOT intensity (Pex13, P80667): 3; SPOT intensity (Pin3, Q06449): 0; SPOT intensity (Rvs167, P39743): 0; SPOT intensity (Sho1, P40073): 29; SPOT intensity (Sla1-2, P32790): 0; SPOT intensity (Sla1-3, P32790): 24"
48,1,0,0,1,1,1,0,5,1,0,17,1,0,0,2,6,9,4,2,RKQRSIPLSPIVPES,"SPOT intensity (Nbp2, Q12163): 0; SPOT intensity (Pex13, P80667): 2; SPOT intensity (Pin3, Q06449): 7; SPOT intensity (Rvs167, P39743): 0; SPOT intensity (Sho1, P40073): 49; SPOT intensity (Sla1-2, P32790): 0; SPOT intensity (Sla1-3, P32790): 17"
8,0,0,0,0,1,0,0,0,0,1,0,2,0,0,1,1,0,3,2,PSRRDSLSIPRAVDA,"SPOT intensity (Nbp2, Q12163): 0; SPOT intensity (Pex13, P80667): 1; SPOT intensity (Pin3, Q06449): 11; SPOT intensity (Rvs167, P39743): 0; SPOT intensity (Sho1, P40073): 13; SPOT intensity (Sla1-2, P32790): 0; SPOT intensity (Sla1-3, P32790): 0"
4,13,0,0,0,0,0,0,2,0,0,0,1,1,1,5,0,0,0,0,GKLKHIPRRPYEIER,"SPOT intensity (Nbp2, Q12163): 0; SPOT intensity (Pex13, P80667): 2; SPOT intensity (Pin3, Q06449): 4; SPOT intensity (Rvs167, P39743): 1; SPOT intensity (Sho1, P40073): 9; SPOT intensity (Sla1-2, P32790): 0; SPOT intensity (Sla1-3, P32790): 16"
